# Laboratory results as given in the NTF2 design screens of Basanta et al. (2020).
# Experiment: protease stability score; higher = more stable; yeast display proteolysis, trypsin and chymotrypsin;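 also: relative to predicted unfolded state with 0 unfolded-like and 1 meaning tenfold more protease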
row,Sequence,protease stability score
1,SEEEELVREHIKRVIHSYETGDWKSFLELFDPNVRLRVGDKELHGRELFIHWLVRLIELLGINHFELILHDVELQGNKAHSDIHSNLTVGDKTEHRKVHLFNLKVNGRWRTQSEHIE,1.36
2,DEATKSAEIAVRLLKKTQDTGNEELERKLVDPHVRVDVNGRESHGWEHLVEIIREMRVHSLTVTRSEVQGNKVFNDGILDGEINGVRVHIYIHIIIEKINGQWVIRELRFH,0.803
3,SEEDKIALEILEMTKKLWDTGDEELMVDLVDPHVKVDWDGRERHGREAVEFFFRSIIEKVKNLTIRLTDFRVINGRIEIDSTLKFNGKTLEVRIISTKIDGQWYIESISFR,1.38
4,DEDEELLREFFELLVEAELTGDEKEITRFADPNVILFQGEKEFHGRDFLIRLIMEIRIHHHELERFHLDVFNGRAEIHVDNRRDGWFDGKRIHTKVDLHIHSEKIDGRWLLKNINEILR,0.716
5,DEDEELRRRRSEIVRKDWETGDWKSIEELADPHVKNHIGEYLAVGRENLVFVLEHFLKVLGVKHREIHSSELHIVNGRAEVHIDTRLVVNGRNIKTHVRFIFDKVNGRWVMHSVEFHVD,1.25
6,DEDRKMAEHWIRIWYHLVETGDEEEINNFADPHTRMEVNGVEFHGRELVKHSNHKLLRDAGVDKIHVEIHEMRVIGNKVEIHGTIRFNGQEYHFILIVLKVNGRWVIESMKHE,0.724
7,SEDEETIEDFVKWFVRALKTGDEDTINEMIDPHVLLHINGKDYHGRELVWRHFEELGIKHTELRHLHTYNGRVELESRLIVDGRVHKVHFHARKVNGRWTVTKVEIR,2.61
8,SEHEEVASRVTTEIIHNLLTGDWQRTTELMDPNTKLDVNGQHHHGWELYHKVLREWHEELRVHDMKEHDLKVIDGVAFSNMRVDIEINGVRFETEIRIIVVVVNGRIKSISFESK,0.771
9,DHEKENIERSSRIMLRLYETGDEDELRKLADPHARSEVGEFEYHGREEVFRWLNLLIRELGAKHITIRDIKYVGNKLTLHMISHVDGRELNLEIWAIKIDGQWLLTTVHHK,0.69
10,SDLHRDIQRLLEQVLRSRETGDEDHLEKYADPHARSVFDGVEFHGWEELLRVIRHIRIRRLRLTHIEVQGDKVELDLELDGEINGQRVRVHLEIHSEKINGRWIMTEVVIE,1.21
11,SDEDEEMRELMERIHHAIKTGDEDLLHHMFDPNARVDIDGQIWHGREWEHFFLRKFKGLRIEIKRVHVQGDKIHFRGLDEINGVKFDSHLIIIIVNGKTHAIEIDHR,1.53
12,DEDEYMAKEMSELLIHLLLTGDEEHFRKFADPNVRLIIGEFESHGREEALRLLRILHRDYGIKHIHFRLRHIHQIGDKVNIHSQVELRQGDKHNSHEMTVIIWKVNGRWVIHSIDIV,2.38
13,SDEEEDIERAIRLMHEIHETGDESVWEHLADPHVKVDFNGQERHGREDMIKIWHYLGVKHVFFRDIRVQGEFLVVHSEDNVDGKTFQIRYLVFKINGRWFLEEVEFD,0.942
14,DEERKSTELALKHWHESMRTGDEHDTRRMMDPNVRVEIGDKTYVGREDVLEFMHRLGANHVEHFEIEDWKIVNGKVVMHGHSRVRIGDFEANTEVIIFSQKFNGRWFLESVIIV,0.656
15,DDEERQAREFLKNYIRSLLTGDEDTLDELVDPNARWHVGDYHMIGRDSVSFLTKHLRIKHIEIKDIEIYGNKAIVLVHMHGIIDGKERDTDIIIFVEKINGQWKVREHRIS,1.15
16,DRHEELNKEIAEELVHWHRTGDWEEIQRNMDPNVRMEINGVENVGRETMAEILHEWLSRIKGLRVEIKHVEIIGDKVHIHGRININGRERNTHIDLHVVNGQMHELIIKVE,0.279
17,SEKEEVLREHARRVTEWWLTGDWEEFMKNMDPNARLQIGDKTSHGREEMYRVLKEIEHRLGVDHIEIKDEKVFNGRNHLDTRLHIGDKSINIRIHIDFVNGRLKFVRIEVD,1.18
18,SEDEELAKEFAETMLHWEITGNEEAIRRNMDPNTKLDINGQHYIGRDDVLRVWHEIKKRLGVDHLEIHHIRVSVIGDKIRIEIDGHIRVNGREIETHIVIITEKINGKWIIRSMRYEFK,1.24
19,SEDEESAKFVIQLILHSLRTGDFKIIEDLLDPNARVQINGVELHGRERVHEHWERIDHIEDVRIREVSVQGDKLVLNVERREKQGDYESSTKVIIYARKVNGKWVIDEVEVR,2.55
20,DENEHIAREFLRQFLRQVETGDEYRLMELMDPNARINFDGKDLHGRDEWIRKIREIRFDQTHIHDVRIQGNKMEVDTRWDGEINGVRTIFDVHMDIRKVDGKWIIKVINIH,1.66
21,DEDTKLAQKMSKLLNHAIHTGDEKILRQLLDPHVRVHIGDKEHHGWKEYEKIMQEWRFEHVETEHVSLVNGRLHIDSHIVGNIDGRRTEVETHIIIKKFDGRWIDTEFHMK,0.583
22,SEDEKHFREALEELHRALETGDWKRLDELLDPNTRLHINGVDLIGREMVSRFYRELVEHLGINHIELRVHHIRIIGDKVEMDSELIIDVGDKHIRIDQKLDAKKVDGRWISHVESHR,2.05
23,SEEEKHFEDALERWIRTTDTGDETKLIELMDPHVKVDINGQEFHGWKIVFRFMHHLIRRIDHIIIEVKHLRVYDGRVELDGIIRVRFDGRQMEYNSRFIALKFNGVWLLHSMHFH,1.87
24,NKHERDAEHFIKEWWHDVHTGDEDHYLKRLDPNMRVDINGQEFHGREKVLTFFHEHSRHLGIDHLIIDHVRIRVQGNKIEEEVEGENVFNGKRLEVRFHFVARKIDGRWELEHLTVRIS,0.724
25,TEEEHLLKKLAELVWEAVETGDEDFLKKLVDPHTRLHVDGREHHGREDFIEILTRMGVDHHRLEHFRVIDGKLFIDGHFNFNGRYFRVHIIFIIINGRAKEFWMRTE,1.66

row,Sequence,protease stability score
1,DHEEKAKKFFDDLLRAVKHNDETQLERLFDKNVRFNVGEHNFRGREEFVKMVRTMVEQVDHVTATIVSIETNGDKVNLVAQWDMSHNGNSKRIRVLVVLDDNNGRVVAREMSEK,1.98
2,DNKEKLMNKAFEWILELIITGDEDTLHELADPNARNHYGEFHHVGREETTRFLVEFNRRLGVDHVRFERMRVIDGKVHLHIEINVDGRRFESDLIFFKVDGRWKLNFVHFRHV,1.27
3,DDLHEDTKRYLKEWIDLMYTGDEEKIFENMDPNTRIIDENHELHGREEVKDWARRMARELRHREFELTHLEVQGNFIHVRGLLIGDQGDKVIIRDVEIISIKINGRWRIESVRFE,2.34
4,TEMLEEALRFVEQLIKAILTGDESVFRNLVDPNAKNEIDGVEIHGWEFLNVFHKRYDHVTHLHFVLRSVRVYGDKLEMHGVVEIHGVIDGQERNFEVDTEIHVEKINGQWILRSLYVR,1.11
5,DEDEKASKVFVRLIKESIETGDEDTITHLADPNVRVIIGDKELHGWEELSRILHELRIHRFIVRREHVYDGRVQIDGRMDTEINGKKFITEVHVDAIKINGVWWLHLVEIR,1.38
6,HRVETEAHHMMKLLEHWLQTGDEEMWKTYADPDVRIDVDGKTLHGRDNFEHVLRMYGIKHRHIRDSHYHFIGDYLHYNLDVEVHFNGKDLKTHFTFQIRKVDGRWELERVHIRVH,0.941
7,REEDKEFEDAVKTILHSFLTGDFDLLIKLLDPNVRIRFENVDLVGWSEYLRRLEEFGVKVHRTKRSDIRYINGVAVVIIDGEMEYGDKKTKVELNFVMQKYDGRWRTQSIHEKEH,1.12
8,DEDSKHVEHLMRLLIRLLITGDEDTLLNLIDPHARIDINGKEVHGREWAEKFIRRFERDLGVKHNHIEHIELQGDKAHVDFSLRIGDKMIQVHIDIWIVDGKLQSIRIKIK,1.54
9,DEDEELLRRRADLFLKAYITGDENLLKRLADPDVLFDVNGRVFHGREHFITWLHRQLREFKNMRIHIRDIKHEVQGNFLHSEVDVTININGKEHWFILILIASKVDGKWIVEQIEIRFE,1.48
10,EEDRKHAEHVFELLMEVLLTGDWKMSRHLFDPNARIEIDGVESHGWEFIYRLLRFIWEHLGIKVRDMKIRRFDVINGVAHFDGELRLHVDGVEIVLEIRLNIFVINGRLKEVHLKRT,1.42
11,NEERSHSEEVARLISHAWETGDEETLREQVDPHVKLVIGDKTFHGREEALTIIVQLRLRTVEIHDMKVVNGRLNLFTLWHIEIDGRRVLHHVVIHIEKIDGRWVMTEVRVH,2.1
12,DEEERRLHEIAELVVHRLVTGDEDTLNKLFDPNTRFELIFNGQNFELHGREALMEWLQRRRNVREKHEVRRIEYQGDKLHVDGTLIIEYGDKRRESEVDLRIRVVNGRVHTIDLRLK,1.48
13,SEHETEVMRLAEITVKSFLTGDEDTMHHLLDPHVRSDVNGRHHIGRERWLKVVEDMLRHLRLTTIEIHHVDAINGRLHTDTRVNVHINGQEVILETELIIVIVDGVVKEVHWVVK,0.994
14,SEEEKKDHRQWERTFKAFLTGDEDTVHNLADPHVKTEVGDKEYHGRENFSKLISDLGVDHLNLKEIDTVNGRIHLLSEVRFNGQITKFIIIILKVNGQWHVESMEFH,0.441
15,DEREKEAKTLHQEWFRALQTGNEKRLHELLDPHVRSDVNGVKLHGRHALIKFLVKWLRQIDHNERLEIHDIRFQGDKSEEDVRVVVHIDGRRIDYETHVHLDIYDGVIREVEIDIK,1.18
16,SELHEDAEEIAKQFSRAWTTGDFEELDKLFDPNARIEYGDYEVHGRHIVSKFLRQIRIKEVRFIVRRVEHYDGRIRLWGELTLHGNINGRDFDLHTKSDLLVIKIDGRWVVEQYIIR,1.47
17,DEHDKLLKELSERMFELWETGDEDRLHKLADPHALSRVGEFSIHGMRNHMEWLREWLRRVKNATIHVRDVDLQGNKSRFDHELIIDGVELKVIDNIVLVNGRIKEIRIEIN,0.027
18,EDEERETEEAIRLFIKNEITGDWKRLLHYLDPNVRVRIGDKEIHGMERWKDEFKQEIDRVKGLRYELDDERRHLVDGKIEIILDFTIHVGEKRHRFQLVLILVKVNGRWIMHSIHVNYL,1.54
19,DDSEEHAEEVVRELSESLRTGDEKSVDRLLDPNVKFIINGVEYVGRELFLELFKKTLEEIRIESIEVTHIDIQGEKVRLETKEHAIINGKRFQFKTEVIMRKVNGRWEIQELRFE,1.98
20,TEELEELEKMLELVLRSFHTGDEHLLERLADPHAKYHFNGKNLHGWDKLSHLWRKAGVEKVESRIRDLELQGDYVNTDVEMRYNGRTEEVEFRVKKIDGRWIIKEIIIR,0.809
21,HDEERDSKIASSIMVETWKTGNEHLMERMFDPHTRSHVGDKEIHGMEEFIRWLYELLRKIKNARFTVEDTDLINGVVVVITRLHVGDKDFLLTFFVEKFNGRWHLRSFEMK,0.772
22,TEDKEIAIRVTEHFIEAIYTGDEDRVRDLLDPEARLDVNGVELHGMRWFTFWLRQIRIHNMYIRHTEVQGDKVHVDMEQDVEFNGKRHELKSHFVLLKVNGRWTVKHYNVR,2.28
23,SEEEESSHNAIKIWMETMETGNEELYLRLLDPHTRLDVNGKEFIGREVLKMFKKQIDHVKDVDVEHVEVQGDKVILNGRVRGDINGVERNTIEHLIVRKIDGRWRITEFSIR,0.94
24,SEDEKKRDESLELILRAILTGDEDLLKTLADPHVMFDWNGKELHGMNVFIHWVRHMGVDHRNIESKDKRIQGDKVRLDMTSNEHAENHEHRYRVELIIKKIDGRWIIKEFIIR,1.36
25,SELEELVKRILKFILHSWDTGDEEFDKHMADPNVRVIYNGVDLHGMHTKDDLIKRLGWEQESRIRSIRAIGEKAHMDVELVWRFDGQQRDHDTRVHLDIVNGRSKNMEIRFK,0.165
